# In patent publication US20100222258A1 (KABUSHIKI KAISHA HAYASHIBARA SEIBUTSU KAGAKU KENKYUJO, published 2010):
# Positions count from the first letter of the chain named.
# B1: lysine-replaced human TNF (ligand)
# chain: VRSSSRTPSDMPVAHVVANPQAEGQLQWLNRRANALLANGVELRDNQLVVPSEGLYLIYSQVLFSGQGCPSTHVLLTHTISRIAVSYQTPVNLLSAIRSPCQRETPEGAEANPWYEPIYLGGVFQLEPGDRLSAEINRPDYLDFAESGQVYFGIIAL
# notes: Parent of all clones; also called Lysine-replaced TNF; lysine-replaced mutant
# B2: TNF mutant protein of clone No. 9 (ligand)
# chain: B1 chain with L29S, R31P, R32M, E146N, S147P
# notes: Mutant of lysine-replaced TNF, made in E. coli
# B3: TNF mutant protein of clone No. 31 (ligand)
# chain: B1 chain with A84S, V85K, S86T, Q88S, T89H
# notes: as for B2
# B4: TNF mutant protein of clone No. 27 (ligand)
# chain: B1 chain with A84T, V85P, S86A, Q88P, T89R
# notes: as for B2
# B5: TNF mutant protein of clone No. 14 (ligand)
# chain: B1 chain with E146N, S147D
# notes: as for B2
# B6: TNF mutant protein of clone No. 16 (ligand)
# chain: B1 chain with A84S, V85S, S86T, Q88P, T89D
# notes: as for B2
# B7: TNF mutant protein of clone No. 33 (ligand)
# chain: B1 chain with A84N, V85H, S86R, T89D
# notes: as for B2
# B8: TNF mutant protein of clone No. 15 (ligand)
# chain: B1 chain with A84T, V85N, S86H, Q88S, T89N
# B9: TNF mutant protein of clone No. 32 (ligand)
# chain: B1 chain with A84T, V85D, S86R, Q88S, T89S
# notes: as for B2
# B10: TNF mutant protein of clone No. 2 (ligand)
# chain: B1 chain with L29T, R31G, R32Y
# notes: as for B2
# B11: TNF mutant protein of clone No. 8 (ligand)
# chain: B1 chain with L29R, R31E, R32H, A145N, E146N, S147A
# notes: as for B2
# B12: TNF mutant protein of clone No. 5 (ligand)
# chain: B1 chain with L29R, R31S, R32H, A145S, E146G, S147T
# notes: as for B2
# B13: TNF mutant protein of clone No. 4 (ligand)
# chain: B1 chain with L29K, R31A, R32G, E146S, S147T
# notes: as for B2
# B14: TNF mutant protein of clone No. 30 (ligand)
# chain: B1 chain with A84T, V85P, S86G, Q88P, T89S
# notes: as for B2
# B15: TNF mutant protein of clone No. 34 (ligand)
# chain: B1 chain with A84S, V85A, S86D, Q88P, T89H
# notes: as for B2
# B16: TNF mutant protein of clone No. 7 (ligand)
# chain: B1 chain with L29H, R31N, R32T, A145D, E146S, S147N
# notes: as for B2
# B17: TNF mutant protein of clone No. 25 (ligand)
# chain: B1 chain with A84S, V85K, S86T, Q88S, T89H
# notes: as for B2
# B18: TNF mutant protein of clone No. 20 (ligand)
# chain: B1 chain with A84S, V85S, S86A, Q88A, T89S
# notes: as for B2
# B19: TNF mutant protein of clone No. 26 (ligand)
# chain: B1 chain with A84S, V85S, S86H, Q88R, T89F
# notes: as for B2
# Legend:
# [1] = target: T1, TNF-R1 (a protein having the amino acid sequence, Accession No. M58286 registered at GENBANK) (UniProt P19438 30-211, limits assumed); test: SPR (BIACORE 2000), receptor on sensor tip; grade 3 = 0.5 to 2 times that of recombinant TNF-α
# T1 construct: also called TNF receptor having a molecular weight of 55 kilo daltons
# T1 sequence (looked up): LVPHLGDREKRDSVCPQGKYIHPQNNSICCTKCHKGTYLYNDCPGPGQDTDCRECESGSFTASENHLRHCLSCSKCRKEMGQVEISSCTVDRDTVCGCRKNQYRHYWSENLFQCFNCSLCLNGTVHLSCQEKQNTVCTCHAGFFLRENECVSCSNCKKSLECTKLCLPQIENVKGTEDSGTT
# Excerpt: (§1) Using the above detector based on surface plasmon resonance effect again, the resulting clones binding to TNF-R1 (or TNF-R2) were subjected to the remaining sensor tip conjugated with TNF-R2 (or TNF-R1) to measure receptor binding affinity and select clones having a variation of receptor binding affinity. […] The resulting DNAs were digested with restrict enzymes NdeI and BamHI to obtain DNA fragments. The resulting DNA fragments were introduced into a plasmid vector containing T7 promoter region, T7 terminator region, ampicillin resistant gene region and ColE1/Ori region (product name “pET-3a”, manufactured by “Novagen®” (EMD Biosciences, Inc.)) at the position of the above restriction sites. The resulting plasmid was introduced into E. coli BL21DE3 strain to obtain a transformed E. coli for producing the TNF mutant proteins. The obtained transformed E. coli was cultured according to usual method and centrifuged to collect E. coli pellet. The resulting pellet was washed twice with TES buffer (pH 8.0) (20 mM Tris-HCl, 10 mM ethylene diamine tetraacetic acid and 0.5 M sodium chloride) and admixed with TES buffer (pH 8.0) containing 0.2 mg/ml lysozyme. The resulting suspension was sonicated according to usual manner, and centrifuged to collect a precipitate containing the produced TNF mutant protein. The resulting precipitate was treated three times in a manner of admixing with TES buffer containing 1 (w/w) % Triton X-100, removed from supernatant by centrifuging, admixed with 50 mM Tris-HCl (pH 7.0) containing 8 M guanidine hydrochloride and 50 mM dithiothreitol, with stirring for 16 hours at ambient temperature under shielded condition, and centrifuged to collect a supernatant. The resulting supernatant was gently admixed with 100 time volumes of a aqueous solution containing 1 M Tris, 0.9 (w/v) % sodium chloride, 0.4 M L-arginine chloride, 2.5 mM reduced glutathione, 0.5 mM oxidized glutathione and 0.05 (w/v) % Tween 20, and kept at 4° C. for 16 hours.
# [2] = target: T2, TNF-R2 (a protein having the amino acid sequence, Accession No. M55994 registered at GENBANK) (UniProt P20333 23-257, limits assumed); test: as above
# T2 construct: also called TNF receptor with 75 kilo daltons
# T2 sequence (looked up): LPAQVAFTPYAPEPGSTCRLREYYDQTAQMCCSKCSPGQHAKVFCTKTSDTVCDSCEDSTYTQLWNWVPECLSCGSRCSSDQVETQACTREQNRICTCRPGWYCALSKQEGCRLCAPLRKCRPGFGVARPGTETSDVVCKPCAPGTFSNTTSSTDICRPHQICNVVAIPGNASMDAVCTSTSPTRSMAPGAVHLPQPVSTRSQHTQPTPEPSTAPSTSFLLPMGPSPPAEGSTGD
# Excerpt: as §1
# [3] = target: T1, TNF-R1 (a protein having the amino acid …); test: SPR (BIACORE 2000), receptor on sensor tip; grade 2 = 0.5 to 0.1 time that of recombinant TNF-α
# Excerpt: as §1
# [4] = target: T2, TNF-R2 (a protein having the amino acid …); test: SPR (BIACORE 2000), receptor on sensor tip; grade 1 = 0.001 to 0.1 time that of recombinant TNF-α
# Excerpt: as §1
# [5] = target: T1, TNF-R1 (a protein having the amino acid …); test: SPR (BIACORE 2000), receptor on sensor tip; grade 4 = two times or more that of recombinant TNF-α
# Excerpt: as §1
# [6] = target: T2, TNF-R2 (a protein having the amino acid …); test: SPR (BIACORE 2000), receptor on sensor tip; grade 2 = 0.5 to 0.1 time that of recombinant TNF-α
# Excerpt: as §1
# [7] = target: T2, TNF-R2 (a protein having the amino acid …); test: SPR (BIACORE 2000), receptor on sensor tip; grade 0 = weakened to 0.001 or less of that of recombinant TNF-α
# Excerpt: as §1
Binder,binding affinity relative to recombinant TNF-α [1] [fold],binding affinity relative to recombinant TNF-α [4] [fold],binding affinity relative to recombinant TNF-α [5] [fold],binding affinity relative to recombinant TNF-α [6] [fold],other results
B1,0.5 to 2,–,–,–,binding affinity relative to recombinant TNF-α [2]: 0.5 to 2 fold
B2,–,0.001 to 0.1,–,–,binding affinity relative to recombinant TNF-α [3]: 0.1 to 0.5 fold
B3,–,–,≥ 2,–,binding affinity relative to recombinant TNF-α [2]: 0.5 to 2 fold
B4,0.5 to 2,–,–,0.1 to 0.5,–
B5,–,–,–,–,binding affinity relative to recombinant TNF-α [2]: 0.5 to 2 fold; binding affinity relative to recombinant TNF-α [3]: 0.1 to 0.5 fold
B6,–,–,≥ 2,0.1 to 0.5,–
B7,–,0.001 to 0.1,≥ 2,–,–
B8,–,0.001 to 0.1,–,–,binding affinity relative to recombinant TNF-α [3]: 0.1 to 0.5 fold
B9,–,–,≥ 2,0.1 to 0.5,–
B10,0.5 to 2,–,–,0.1 to 0.5,–
B11,–,0.001 to 0.1,–,–,binding affinity relative to recombinant TNF-α [3]: 0.1 to 0.5 fold
B12,0.5 to 2,–,–,–,binding affinity relative to recombinant TNF-α (grade) [7]: ≤ 0.001 times that of recombinant TNF-α
B13,0.5 to 2,–,–,–,binding affinity relative to recombinant TNF-α (grade) [7]: ≤ 0.001 times that of recombinant TNF-α
B14,0.5 to 2,–,–,0.1 to 0.5,–
B15,0.5 to 2,–,–,0.1 to 0.5,–
B16,–,0.001 to 0.1,–,–,binding affinity relative to recombinant TNF-α [3]: 0.1 to 0.5 fold
B17,–,0.001 to 0.1,≥ 2,–,–
B18,0.5 to 2,–,–,0.1 to 0.5,–
B19,–,0.001 to 0.1,≥ 2,–,–
